Results reported in patent US20240035012A1.

Tests used:
[1] = target: prefusion stabilized trimeric SARS-CoV-2 spike protein ectodomain (SARS-CoV-2) (UniProt P0DTC2)
[2] = target: prefusion stabilized trimeric SARS-CoV-2 spike protein ectodomain (SARS-CoV-2) (UniProt P0DTC2); remark: listed apart in the source

Substance: ACE2-short-3HB (receptor)
- IC50 [1]: 2.9 nM
- Kd [2]: 3.9 nM
